# In US20200392225A1 (Novartis, published 2020):
# T1: human NPR1 expressed on CHO-K1 cells (human, UniProt P16066 33-1061)
# T1 sequence: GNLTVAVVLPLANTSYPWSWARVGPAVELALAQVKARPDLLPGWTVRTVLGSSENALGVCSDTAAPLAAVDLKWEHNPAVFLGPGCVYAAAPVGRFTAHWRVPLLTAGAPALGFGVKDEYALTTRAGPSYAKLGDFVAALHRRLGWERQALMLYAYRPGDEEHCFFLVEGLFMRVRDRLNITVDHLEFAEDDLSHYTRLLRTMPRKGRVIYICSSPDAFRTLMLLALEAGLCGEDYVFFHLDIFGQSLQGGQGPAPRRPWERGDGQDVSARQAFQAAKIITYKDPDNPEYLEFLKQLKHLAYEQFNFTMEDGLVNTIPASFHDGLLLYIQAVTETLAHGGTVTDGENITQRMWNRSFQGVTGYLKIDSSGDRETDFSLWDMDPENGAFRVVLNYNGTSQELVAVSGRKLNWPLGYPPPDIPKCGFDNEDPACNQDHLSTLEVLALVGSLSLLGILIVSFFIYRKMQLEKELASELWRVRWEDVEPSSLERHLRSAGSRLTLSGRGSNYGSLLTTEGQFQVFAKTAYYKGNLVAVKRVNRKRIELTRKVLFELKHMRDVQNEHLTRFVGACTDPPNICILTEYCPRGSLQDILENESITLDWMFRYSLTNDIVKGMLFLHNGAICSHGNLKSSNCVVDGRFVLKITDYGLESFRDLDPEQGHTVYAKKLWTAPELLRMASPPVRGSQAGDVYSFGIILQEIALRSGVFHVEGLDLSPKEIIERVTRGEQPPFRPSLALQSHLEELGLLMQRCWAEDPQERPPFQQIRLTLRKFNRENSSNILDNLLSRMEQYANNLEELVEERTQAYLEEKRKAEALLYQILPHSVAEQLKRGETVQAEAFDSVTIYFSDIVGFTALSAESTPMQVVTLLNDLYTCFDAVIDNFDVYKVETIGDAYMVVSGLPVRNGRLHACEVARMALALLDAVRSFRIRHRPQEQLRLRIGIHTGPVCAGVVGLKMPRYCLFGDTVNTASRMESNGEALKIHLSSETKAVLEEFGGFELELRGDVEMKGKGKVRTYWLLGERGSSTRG
# T2: human NPR1 (Natriuretic Peptide Receptor 1), recombinant antigen (human, UniProt P16066 33-473)
# T2 construct: also called hNPR1; NPR1-hFc
# T2 sequence: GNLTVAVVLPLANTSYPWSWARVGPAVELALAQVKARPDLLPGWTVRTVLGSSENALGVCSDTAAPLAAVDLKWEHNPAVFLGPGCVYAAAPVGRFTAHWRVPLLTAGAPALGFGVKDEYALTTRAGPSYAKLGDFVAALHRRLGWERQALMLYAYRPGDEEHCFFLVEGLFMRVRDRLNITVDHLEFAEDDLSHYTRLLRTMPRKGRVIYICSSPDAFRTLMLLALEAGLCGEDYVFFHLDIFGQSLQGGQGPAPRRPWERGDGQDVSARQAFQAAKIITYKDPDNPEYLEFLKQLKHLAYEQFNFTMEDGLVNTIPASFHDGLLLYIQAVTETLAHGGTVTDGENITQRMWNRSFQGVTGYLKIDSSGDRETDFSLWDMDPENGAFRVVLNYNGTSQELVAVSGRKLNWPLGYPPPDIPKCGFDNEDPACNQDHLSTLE
# T3: human NPR1-ANP complex (human, UniProt P01160 124-151, limits assumed)
# T3 construct: Receptor antigen measured in the presence of ANP; also called hNPR1 + ANP; hNPR1-ANP-complex
# T3 sequence: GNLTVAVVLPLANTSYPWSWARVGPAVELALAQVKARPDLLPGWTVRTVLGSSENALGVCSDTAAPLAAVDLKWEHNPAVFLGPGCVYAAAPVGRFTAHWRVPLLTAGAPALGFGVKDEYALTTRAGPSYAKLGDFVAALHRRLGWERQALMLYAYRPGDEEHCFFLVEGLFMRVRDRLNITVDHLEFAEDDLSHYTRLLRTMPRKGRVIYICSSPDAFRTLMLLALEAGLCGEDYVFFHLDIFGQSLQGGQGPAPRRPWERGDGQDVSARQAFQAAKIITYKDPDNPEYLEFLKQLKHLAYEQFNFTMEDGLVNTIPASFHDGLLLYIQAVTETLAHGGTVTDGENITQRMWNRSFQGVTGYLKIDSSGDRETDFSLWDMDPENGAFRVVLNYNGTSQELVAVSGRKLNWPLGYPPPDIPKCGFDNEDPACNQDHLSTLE
# T3 sequence (peptide): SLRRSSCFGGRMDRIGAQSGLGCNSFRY
# T4: human NPR1 expressed on CHO-K1 cells in the presence of ANP (human, UniProt P01160 124-151)
# T4 construct: also called hNPR1 CHO K1 + 100 nM ANP
# T4 sequence: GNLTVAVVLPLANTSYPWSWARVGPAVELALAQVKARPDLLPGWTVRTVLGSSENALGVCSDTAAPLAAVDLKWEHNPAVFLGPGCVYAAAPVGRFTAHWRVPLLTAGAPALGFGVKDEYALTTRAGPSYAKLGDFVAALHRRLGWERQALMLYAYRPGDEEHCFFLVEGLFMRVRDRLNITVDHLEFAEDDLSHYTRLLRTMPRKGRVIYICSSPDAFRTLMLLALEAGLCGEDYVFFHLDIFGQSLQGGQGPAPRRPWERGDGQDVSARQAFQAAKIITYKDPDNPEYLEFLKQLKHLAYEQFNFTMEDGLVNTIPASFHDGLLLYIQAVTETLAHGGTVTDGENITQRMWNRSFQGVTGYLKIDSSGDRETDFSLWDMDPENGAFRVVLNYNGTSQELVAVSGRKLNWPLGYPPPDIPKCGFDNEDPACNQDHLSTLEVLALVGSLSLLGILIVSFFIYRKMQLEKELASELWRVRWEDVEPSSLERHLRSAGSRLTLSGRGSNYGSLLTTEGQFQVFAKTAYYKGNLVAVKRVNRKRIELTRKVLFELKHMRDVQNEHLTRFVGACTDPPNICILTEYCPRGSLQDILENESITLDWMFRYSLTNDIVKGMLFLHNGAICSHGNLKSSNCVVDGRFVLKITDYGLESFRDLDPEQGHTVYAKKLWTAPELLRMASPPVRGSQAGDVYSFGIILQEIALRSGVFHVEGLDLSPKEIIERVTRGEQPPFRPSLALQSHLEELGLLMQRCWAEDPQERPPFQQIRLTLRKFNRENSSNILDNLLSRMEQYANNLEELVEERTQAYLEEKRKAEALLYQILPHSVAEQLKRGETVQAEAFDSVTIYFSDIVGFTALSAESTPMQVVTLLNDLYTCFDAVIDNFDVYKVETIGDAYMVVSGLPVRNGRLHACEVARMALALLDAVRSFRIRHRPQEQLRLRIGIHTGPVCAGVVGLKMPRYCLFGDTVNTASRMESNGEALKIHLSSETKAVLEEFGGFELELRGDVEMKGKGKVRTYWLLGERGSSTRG
# T4 sequence (peptide): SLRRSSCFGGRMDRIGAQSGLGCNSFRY
# B1: YY01 FabCys (Fab, V domains shown)
# VH: EVQLVESGGGLVQPGGSLRLSCAASGFTFSSYWISWVRQAPGKGLEWVANIKQSGSETYYVESVKGRFTISRDNAKNSLYLQMNSLRAEDTAVYYCARSLRRRSTEHAGFDVWGQGTLVTVSS
# VL: DIQMTQSPSSLSASVGDRVTITCRASQGISNYLAWYQQKPGKVPKLLIYAASTLQSGVPSRFSGSGSGTDFTLTISSLQPEDVATYYCQQADKFPYTFGQGTKVEIK
# B2: YY01 IgG (YY01_LALA) (antibody, V domains shown)
# VH: EVQLVESGGGLVQPGGSLRLSCAASGFTFSSYWISWVRQAPGKGLEWVANIKQSGSETYYVESVKGRFTISRDNAKNSLYLQMNSLRAEDTAVYYCARSLRRRSTEHAGFDVWGQGTLVTVSS
# VL: DIQMTQSPSSLSASVGDRVTITCRASQGISNYLAWYQQKPGKVPKLLIYAASTLQSGVPSRFSGSGSGTDFTLTISSLQPEDVATYYCQQADKFPYTFGQGTKVEIKR
# B3: YY04 FabCys (Fab, V domains shown)
# VH: EVQLVESGGGLVKPGGSLRLSCAASGFTFSNYWISWVRQAPGKGLEWVGRIKSKTYGGTTDYAEPVKGRFTISRDDSKNTLYLQMNSLKTEDTAVYYCAREKYSIRARGHGDYGFDVWGQGTLVTVSS
# VL: DIQMTQSPSSLSASVGDRVTITCRASQGISNYLAWYQQKPGKVPKLLIYAASTLQSGVPSRFSGSGSGTDFTLTISSLQPEDVATYYCQQGYHAPFTFGQGTKVEIK
# B4: WW03 FabCys (Fab, V domains shown)
# VH: QVQLLESGGGLVQPGGSLRLSCAASGFTFSSYWMNWVRQAPGKGLEWVSAISSDGSYTYYADSVKGRFTISRDNSKNTLYLQMNSLRAEDTAVYYCARDRYSMIYSYGAGAFDYWGQGTLVTVSS
# VL: DIQMTQSPSSLSASVGDRVTITCRASQGISSYLAWYQQKPGKAPKLLIYTASTLQSGVPSRFSGSGSGTDFTLTISSLQPEDFATYYCMQSYEKPRTFGQGTKVEIK
# B5: WW01 FabCys (Fab, V domains shown)
# VH: QVQLLESGGGLVQPGGSLRLSCAASGFTFNTHYIHWVRQAPGKGLEWVSSISGSGSNTYYADSVKGRFTISRDNSKNTLYLQMNSLRAEDTAVYYCARERGYVYYHMFDPWGQGTLVTVSS
# VL: DIVLTQSPATLSLSPGERATLSCRASQSITRNYLAWYQQKPGQAPRLLIYGASSRATGIPARFSGSGSGTDFTLTISSLEPEDFAVYYCQQHSMYPRTFGQGTKVEIK
# B6: YY07 FabCys (Fab, V domains shown)
# VH: EVQLVQSGAEVKKPGESLKISCKGSGYSFTSYWISWVRQMPGKGLEWMGIIYPGTSYTRYSPSFQGQVTISADKSISTAYLQWSSLKASDTAMYYCARGSLPGLLGFDHWGQGTLVTVSS
# VL: QSVLTQPPSVSGAPGQRVTISCTGSSSNIGAGYDVHWYQQLPGTAPKLLIYGNSNRPNGVPDRFSGSKSGTSASLAITGLQAEDEADYYCQSYDSPTSSSVFGGGTKLTVL
# Assays:
# [1] = target: T1, human NPR1 expressed on CHO-K1 cells; assay: cell-based or functional assay
# [2] = target: T2, human NPR1 (Natriuretic Peptide …); assay: ELISA, 1 uM IgG
# [3] = target: T1, human NPR1 expressed on CHO-K1 cells; assay: cell-based or functional assay; remark: listed apart in the source
# [4] = target: T1, human NPR1 expressed on CHO-K1 cells; assay: flow cytometry, 1 uM IgG
# [5] = target: T3, human NPR1-ANP complex; assay: ELISA, 1 uM IgG, +100 nM ANP
# [6] = target: T5, rat NPR1-ANP complex (rat); assay: ELISA, 1 uM IgG, +100 nM ANP
# T5 construct: Rat receptor antigen measured in the presence of ANP; also called rNPR1 + ANP; rNPR1-ANP-complex
# [7] = target: T4, human NPR1 expressed on CHO-K1 cells in …; assay: flow cytometry, 1 uM IgG, +100 nM ANP
# [8] = target: T1, human NPR1 expressed on CHO-K1 cells; assay: cell-based or functional assay; remark: listed apart in the source
# T5 sequence (P18910 29-469, one chain of several): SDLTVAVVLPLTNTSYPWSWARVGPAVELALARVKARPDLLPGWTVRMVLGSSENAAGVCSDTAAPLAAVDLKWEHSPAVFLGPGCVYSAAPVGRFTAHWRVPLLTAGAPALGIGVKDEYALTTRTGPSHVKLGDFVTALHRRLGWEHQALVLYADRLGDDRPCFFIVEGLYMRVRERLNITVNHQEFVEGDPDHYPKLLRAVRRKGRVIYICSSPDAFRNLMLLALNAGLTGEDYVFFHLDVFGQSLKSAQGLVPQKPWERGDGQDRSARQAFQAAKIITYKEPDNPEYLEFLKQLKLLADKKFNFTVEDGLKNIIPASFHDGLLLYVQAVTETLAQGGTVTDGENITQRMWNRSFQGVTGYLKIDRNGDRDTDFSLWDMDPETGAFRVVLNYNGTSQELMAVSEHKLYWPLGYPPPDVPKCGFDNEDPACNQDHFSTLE
Binder,"cGMP conc [nM] at 1 uM FabCys, +0.075 nM ANP [1] [nM]","cGMP conc [nM] at 1 uM FabCys, without ANP [1] [nM]","cGMP conc [nM] at 2 uM FabCys, +0.075 nM ANP [8] [nM]","cGMP conc [nM] at 2 uM FabCys, without ANP [8] [nM]",further results
B1,46,15,–,–,–
B2,–,–,–,–,"ELISA IgG binding at 1 uM IgG (unit not given) [2]: 54; cGMP conc [nM] at 1 uM IgG, +0.075 nM ANP [3]: 14 nM; cGMP conc [nM] at 1 uM IgG, without ANP [3]: 5 nM; flow cytometry S/BG [4]: 35 S/BG; ELISA IgG binding at 1 uM IgG (unit not given) [5]: 76; ELISA IgG binding at 1 uM IgG (unit not given) [6]: 50; flow cytometry S/BG [7]: 21 S/BG"
B3,67,18,–,–,–
B4,–,–,108,32,–
B5,–,–,121,30,–
B6,88,77,–,–,–
